These results are taken from article PMC6983367 (Proceedings of the National Academy of Sciences of the …, 2020).

For the test, the target named is bovine mitochondrial F1-ATPase β subunit (His-tagged) (bovine, UniProt P00829 47-528). Briefly: dilution and ultrafiltration.
Sequence of bovine mitochondrial F1-ATPase β subunit (His-tagged) (P00829 47-528): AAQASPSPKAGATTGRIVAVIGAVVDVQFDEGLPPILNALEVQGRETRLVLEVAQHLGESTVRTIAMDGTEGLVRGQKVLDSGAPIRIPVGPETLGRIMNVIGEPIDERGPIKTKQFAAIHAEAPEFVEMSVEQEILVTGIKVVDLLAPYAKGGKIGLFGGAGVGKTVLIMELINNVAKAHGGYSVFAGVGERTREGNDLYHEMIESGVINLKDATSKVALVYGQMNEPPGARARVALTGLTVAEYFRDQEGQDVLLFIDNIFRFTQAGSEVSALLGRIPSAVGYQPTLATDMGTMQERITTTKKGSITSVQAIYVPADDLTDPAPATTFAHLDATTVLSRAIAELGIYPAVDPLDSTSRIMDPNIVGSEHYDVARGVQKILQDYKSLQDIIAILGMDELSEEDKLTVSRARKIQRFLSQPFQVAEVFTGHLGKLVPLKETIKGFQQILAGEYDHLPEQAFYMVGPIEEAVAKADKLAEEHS

B1: bovine mitochondrial F1-ATPase ε subunit (natural protein)
chain: MVAYWRQAGLSYIRYSQICAKAVRDALKTEFKANAMKTSGSTIKIVKVKKE
As to B1, the binding result is listed as “binds”.

B2: bovine mitochondrial F1-ATPase γ subunit (γA99C, γS191C) (natural protein)
chain: ATLKDITRRLKSIKNIQKITKSMKMVAAAKYARAERELKPARVYGVGSLALYEKADIKTPEDKKKHLIIGVSSDRGLCGAIHSSVAKQMKSEAANLAACGKEVKIIGVGDKIRSILHRTHSDQFLVTFKEVGRRPPTFGDASVIALELLNSGYEFDEGSIIFNRFRSVISYKTEEKPIFSLDTISSAESMCIYDDIDADVLRNYQEYSLANIIYYSLKESTTSEQSARMTAMDNASKNASEMIDKLTLTFNRTRQAVITKELIEIISGAAALD
With B2, the binding result is listed as “binds”.
